Bridge positions count the residues as written; N and C are the ends. Square brackets hold non-standard residues; d marks the D form. NOTA‑1 = 1,4,7-triazacyclononane-N,N',N''-triacetic acid phenyl thiourea; Pro(trans-4-Ph) = O=C(O)[C@@H]1C[C@@H](c2ccccc2)CN1; Trp(7-Me) = Cc1cccc2c(C[C@H](N)C(=O)O)c[nH]c12; Pro(trans-4-F) = O=C(O)[C@@H]1C[C@@H](F)CN1; Pro(cis-4-F) = O=C(O)[C@@H]1C[C@H](F)CN1; Phe(4-F) = N[C@@H](Cc1ccc(F)cc1)C(=O)O; Phe(4-Me) = Cc1ccc(C[C@H](N)C(=O)O)cc1; Pro(4S-Me) = C[C@@H]1CN[C@H](C(=O)O)C1; Pro(4R-Me) = C[C@H]1CN[C@H](C(=O)O)C1
Columns and labels:
[1] = biological target: T1, Human Granzyme B (Homo sapiens, UniProt P10144); format: in vivo; set-up: Ten million human peripheral blood mononuclear cell (PBMC) were engrafted in immunocompromised NOG (NOD/Shi-scid/IL-2Rγ) mice; endogenous in cells; host or cells: human PBMC (donor-derived) engrafted in NOG mice; details: for uptake (SUVmean) in lung, liver and bone, GvHD model versus NOG control: 18F-labeled peptides, i.v., mice, static PET/CT 1 h after injection
T1 sequence (P10144 21-247): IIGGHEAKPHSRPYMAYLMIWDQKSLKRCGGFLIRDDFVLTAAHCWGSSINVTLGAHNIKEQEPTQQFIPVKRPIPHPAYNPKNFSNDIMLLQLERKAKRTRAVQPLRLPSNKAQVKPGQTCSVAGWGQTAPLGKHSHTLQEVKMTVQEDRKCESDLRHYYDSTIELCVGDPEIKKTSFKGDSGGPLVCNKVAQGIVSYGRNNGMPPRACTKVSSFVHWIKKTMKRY
Experimental: Diseased model: Graft versus host disease (GvHD) model was selected to evaluate radiolabeled granzyme-B peptides due to presence of human granzyme-B after onset of disease. Ten million human peripheral blood mononuclear cell (PBMC) were engrafted in immunocompromised NOG (NOD/Shi-scid/IL-2Rγ) mice. Body weight was monitored routinely, once the mice started to lose weight (indication of onset of disease), PET/CT scans were performed. To determine target specificity, NOG mice without human PBMC were used as control. […] Mice were intravenously injected with approximately 150 uCi (35 Ci/mmol) of ^18F-labeled peptides and 45-minute whole body static PET/CT scans were performed 1 h after injection. Attenuation correction was performed using low-dose CT scan.

[2] = rhesus monkey, in vivo
Experimental: Healthy non-human primate: A 3 h dynamic PET/CT scan was performed in a healthy male rhesus monkey to determine whole body biodistribution and clearance properties in an additional species. Approximately 6 mCi of ^18F-labeled anti-granzyme-B peptide was intravenously injected in the animal. Attenuation correction was performed using low-dose CT scan. Regions of interests (ROI) were manually drawn over tissues of interest to determine mean standardized uptake value (SUVmean).

[3] = biological target: T1, Human Granzyme B; assay: Binding of scrambled control peptide to human granzyme-B (method not given); set-up: Ten million human peripheral blood mononuclear cell (PBMC) were engrafted in immunocompromised NOG (NOD/Shi-scid/IL-2Rγ) mice; endogenous in cells; host or cells: human PBMC (donor-derived) engrafted in NOG mice
[4] = biological target: T2, human Granzyme B (human, UniProt P10144 21-247); assay: SPR, Biacore 8k+, hGranzyme B captured on SA chip, single cycle kinetics, 1:1 model; Compound 38a, observed m/z 914.7
T2 construct: Captured on a Series S Streptavidin chip for SPR; also called hGranzyme B; GzmB
T2 sequence (P10144 21-247 limits assumed): as the sequence (P10144 21-247) above
Experimental: (§1) The kinetics of test peptide binding to human Granzyme B (hGranzyme B) was determined by SPR. All experiments were performed at 25° C. using the Biacore 8k+ instrument (Cytiva, Marlborough, MA). The Biacore 8k+ Insight Evaluation Software Version 3.0 was used to fit the data with a 1:1 binding model to determine the association rate constant kₐ (M⁻¹s⁻¹, where “M” ~equals molar and “s” ~equals seconds) and the dissociation rate constant kd (s⁻¹). These rate constants were used to calculate the equilibrium dissociation constant. KD (M)=kd/kₐ.
(§2) To measure the binding kinetics of peptides of interest, surfaces were prepared by a capture method to a Series S Streptavidin (SA) chip using a 1×HBS-EP+ running buffer (Cytiva). hGranzyme B was diluted to 10 μg/mL in IX HBS-EP+ and flowed over spot 2 of each flow cell on the chip at a flow rate of 10 ul/min for 20 s to achieve a level of capture of ~1100 RU. […] Binding kinetics were measured using single cycle kinetics at 25° C. by injecting 5 concentrations with 3-fold serial dilutions of test peptides from 0.01 μM to 1 μM. […]
(§3) Peptide dilution series included 2 zero concentration points (no compound) which were averaged and subtracted from the peptide concentration injection as DMSO control responses. […] Corrected response data were analyzed using the Biacore 8k+ Evaluation Software Version 3.0 according to the manufacturer. […]

[5] = biological target: T2, human Granzyme B; assay: cell-based or functional assay
[6] = biological target: T2, human Granzyme B; assay: SPR, Biacore 8k+, hGranzyme B captured on SA chip, single cycle kinetics, 1:1 model; Compound 25a, observed m/z 905.8
Experimental: as §1, §2, §3

[7] = biological target: T2, human Granzyme B; assay: SPR, Biacore 8k+, hGranzyme B captured on SA chip, single cycle kinetics, 1:1 model; Compound 40a, observed m/z 915.0
Experimental: as §1, §2, §3

[8] = biological target: T2, human Granzyme B; assay: SPR, Biacore 8k+, hGranzyme B captured on SA chip, single cycle kinetics, 1:1 model; Compound 41a, observed m/z 912.9
Experimental: as §1, §2, §3

[9] = biological target: T2, human Granzyme B; assay: SPR, Biacore 8k+, hGranzyme B captured on SA chip, single cycle kinetics, 1:1 model; Compound 42a, observed m/z 944.0
Experimental: as §1, §2, §3

[10] = biological target: T2, human Granzyme B; assay: SPR, Biacore 8k+, hGranzyme B captured on SA chip, single cycle kinetics, 1:1 model; Compound 62a, observed m/z 914.7
Experimental: as §1, §2, §3

[11] = biological target: T2, human Granzyme B; assay: SPR, Biacore 8k+, hGranzyme B captured on SA chip, single cycle kinetics, 1:1 model; Compound 66a, observed m/z 912.5
Experimental: as §1, §2, §3

[12] = biological target: T2, human Granzyme B; assay: SPR, Biacore 8k+, hGranzyme B captured on SA chip, single cycle kinetics, 1:1 model; Compound 69a, observed m/z 912.6
Experimental: as §1, §2, §3

[13] = biological target: T2, human Granzyme B; assay: SPR, Biacore 8k+, hGranzyme B captured on SA chip, single cycle kinetics, 1:1 model; Compound 83a, observed m/z 913.2
Experimental: as §1, §2, §3

[14] = biological target: T2, human Granzyme B; assay: SPR, Biacore 8k+, hGranzyme B captured on SA chip, single cycle kinetics, 1:1 model; Compound 86a, observed m/z 912.9
Experimental: as §1, §2, §3

With “*F.N.F.E.D.Q.S.A.D.T.W.Q.P.*C.G.G.K(^18F-AlF-NOTA-1).NH2 [Compound 11a]” the “uptake (SUVmean) in lung, liver and bone, GvHD model versus NOG control” value [1] was “significantly higher uptake in lung, liver, and bone in GvHD model than NOG control”, the “kidney and bladder uptake difference” value ([1]; in vivo) was “No significant difference was observed between the kidney and bladder” and the “primary tissue of excretion” value ([1]; in vivo) was “kidney was the primary tissue through which the peptide was excreted”. The route of excretion [2] was “primarily excreted through renal route”, the blood pool clearance ([2]; iv) was “rapid blood pool clearance” and the uptake in kidneys ([2]; iv) was “high uptake in kidneys within first 20 minutes of injection”.

For “*F.Q.W.Q.A.S.N.E.D.D.T.P.F.*C.G.G.K(NOTA-1)·NH2) ({CH2CO}-FQWQASNEDDTPFCGGK(NOTA‑1)-NH2; thioether N-14) [scrambled peptide, 18F-labeled scrambled peptide used as negative control, reference compound]”, the “binding to human granzyme-B” value [3] was “minimal/no binding” and the “uptake (SUVmean) in lung, liver and bone, GvHD model versus NOG control” value [1] was “No significant difference was observed between lung, liver, and bone in GvHD model and NOG control”.

B1: Compound 38a (peptide)
peptide: {CH2CO}-FNFEDQS[Pro(trans-4-F)]DTWQPCG-NH2
modifications: thioether N-14
SMILES: C[C@@H](O)[C@@H]1NC(=O)[C@H](CC(=O)O)NC(=O)[C@@H]2C[C@@H](F)CN2C(=O)[C@H](CO)NC(=O)[C@H](CCC(N)=O)NC(=O)[C@H](CC(=O)O)NC(=O)[C@H](CCC(=O)O)NC(=O)[C@H](Cc2ccccc2)NC(=O)[C@H](CC(N)=O)NC(=O)[C@H](Cc2ccccc2)NC(=O)CSC[C@@H](C(=O)NCC(N)=O)NC(=O)[C@@H]2CCCN2C(=O)[C@H](CCC(N)=O)NC(=O)[C@H](Cc2c[nH]c3ccccc23)NC1=O
With B1 the Kd [4] was 0.7 nM and the “Human Granzyme B IC50 (fluorogenic substrate enzyme inhibition assay)” value [5] was less than 8 nM.

B2: Compound 25a (peptide)
peptide: {CH2CO}-FNFEDQSPDTWQPCG-NH2
modifications: thioether N-14
SMILES: C[C@@H](O)[C@@H]1NC(=O)[C@H](CC(=O)O)NC(=O)[C@@H]2CCCN2C(=O)[C@H](CO)NC(=O)[C@H](CCC(N)=O)NC(=O)[C@H](CC(=O)O)NC(=O)[C@H](CCC(=O)O)NC(=O)[C@H](Cc2ccccc2)NC(=O)[C@H](CC(N)=O)NC(=O)[C@H](Cc2ccccc2)NC(=O)CSC[C@@H](C(=O)NCC(N)=O)NC(=O)[C@@H]2CCCN2C(=O)[C@H](CCC(N)=O)NC(=O)[C@H](Cc2c[nH]c3ccccc23)NC1=O
For B2, the “Human Granzyme B IC50 (fluorogenic substrate enzyme inhibition assay)” value [5] was less than 8 nM and the Kd [6] was 2.8 nM.

Molecule {CH2CO}-FN[Phe(4-F)]EDQSPDTWQPCG-NH2 (thioether N-14) [Compound 40a] has a Kd [7] of 1.8 nM.

Molecule {CH2CO}-FNFEDQSPDTWQ[Pro(4S-Me)]CG-NH2 (thioether N-14) [Compound 41a] has a Kd [8] of 2.5 nM.

In the case of {CH2CO}-FNFEDQSPDTWQ[Pro(trans-4-Ph)]CG-NH2 (thioether N-14) [Compound 42a], the Kd [9] is reported as 2.6 nM.

With {CH2CO}-FNFEDQS[Pro(cis-4-F)]DTWQPCG-NH2 (thioether N-14) [Compound 62a] the Kd [10] was 6.7 nM.

{CH2CO}-FNFEDQSPDT[Trp(7-Me)]QPCG-NH2 (thioether N-14) [Compound 66a] showed a Kd [11] of 11.1 nM.

Molecule {CH2CO}-FNFEDQS[Pro(4S-Me)]DTWQPCG-NH2 (thioether N-14) [Compound 69a] has a Kd [12] of 17.2 nM.

{CH2CO}-FNFEDQS[Pro(4R-Me)]DTWQPCG-NH2 (thioether N-14) [Compound 83a] showed a Kd [13] of 48 nM.

In the case of {CH2CO}-FN[Phe(4-Me)]EDQSPDTWQPCG-NH2 (thioether N-14) [Compound 86a], the Kd [14] is reported as 579 nM.

— US20260207798A1, “CYCLIC PEPTIDES AS PET IMAGING AGENTS OF GRANZYME B” (priority 2022, published 2026)
